Reference: PMC7614769, “Structural basis for Fc receptor recognition of immunoglobulin M” (Nature structural & molecular biology, 2023)

Molecular target: pentameric IgM-Fc core containing Cμ4, Cμ3 and the J chain (human, UniProt P01871 106-433; P01591 23-159, N-linked glycosylation at Asn563)
Assay: BLI; FcμR (20 μg/ml) captured on AMC (anti-mouse IgG-Fc capture) biosensors by the anti-FcμR antibody RR-16; full-length or proteolysed IgM 0.08-10 nM in solution; PBS, 0.005% Tween 20, 25 °C; apparent Kd from response against IgM concentration, 1:1 binding model
Details: both partners purified

Kd: 0.7 ± 0.1 nM
B1: human FcμR ectodomain (receptor, UniProt O60667 17-251, looked up)
chain: LRILPEVKVEGELGGSVTIKCPLPEMHVRIYLCREMAGSGTCGTVVSTTNFIKAEYKGRVTLKQYPRKNLFLVEVTQLTESDSGVYACGAGMNTDRGKTQKVTLNVHSEYEPSWEEQPMPETPKWFHLPYLFQMPAYASSSKFVTRVTTPAQRGKVPPVHHSSPTTQITHRPRVSRASSVAGDKPRTFLPSTTASKISALEGLLKPQTPSYNHHTRLHRQRALDYGSQSGREGQG
notes: FcμR, human, ectodomain; Full-length human FcμR has 390 aa; 251 aa are extracellular: 17-aa signal peptide, 107-aa Ig-like domain, 127-aa stalk; Only the Ig-like domain is resolved in the cryo-EM maps; also called TOSO; FAIM3; source: bought: R&D, Catalog 9494-MU-050, lyophilized, suspended in PBS
